Source: patent US20110200622A1 (SAMSUNG ELECTRONICS, published 2011)

molecular target: T1, human VEGF (R&D systems, Inc.; catalog #293-VE) (human, UniProt P15692-4 27-191); test: phage ELISA on plate-immobilised human VEGF, anti-M13-HRP, OD450
T1 construct: Bought protein; It was biotinylated for bead panning and coated directly on the plate for the ELISAs; also called human vascular endothelial growth factor; human-derived vascular endothelial growth factor
Description: E. coli XL1-Blue was infected with each of the phage clones obtained from the biopanning process, and the cells were cultured at 37° C. for 14 hours to obtain a phage solution. The VEGF was added to a 96-well microtiter plate (Nunc), and maintained at 4° C. for 18 hours to immobilize the VEGF on a surface of the plate. The plate with the immobilized VEGF was blocked with skim milk at room temperature for 1 hour, and 100 μl of the phage solution was added to the plate. Then, the phage and the VEGF were incubated together at room temperature for two hours, and washed using a PBS solution containing 0.1% Tween-20. Subsequently, an anti-M13 antibody (GE Healthcare) specifically reactive to the phage and conjugated with horseradish peroxidase (HRP) was added to the resultant product and incubated with each other at room temperature for 1 hour. Then, the plate was washed twice with a PBS solution containing 0.1% Tween-20. Lastly, 100 μl of trimethylbenzidine (TMB) (SIGMA), an HRP substrate, was added to each well of the plate to induce a color reaction. The reaction was stopped by adding 50 μl of 5N H₂SO₄ solution. The OD₄₅₀ value was read on a plate reader (Molecular Devices). […] To determine the base sequence of polynucleotides encoding the polypeptides specifically binding to the VEGF obtained from single clones of the phages, a colony polymerase chain reaction (PCR) was performed using two different primer sets (primer set SEQ ID NOS: 47 and 48; and primer set SEQ ID NOS: 49 and 50). Each primer set was used according to the origin of the Dyax polypeptide library. […] The PCR was performed using a GeneAmp PCR system 9700 (Applied Biosystem), with the following PCR conditions: 30 cycles of 94° C. for 5 minutes, 94° C. for 1 minute, 60° C. for 1 minute, and 72° C. for 1.5 minutes; 72° C. for 10 minutes; and cooling to 4° C. Subsequently, polynucleotide fragments obtained by the PCR reaction were washed and then sequenced (Solgent).

T1 sequence (P15692 other isoform, or with tags, fused parts or gaps limits assumed): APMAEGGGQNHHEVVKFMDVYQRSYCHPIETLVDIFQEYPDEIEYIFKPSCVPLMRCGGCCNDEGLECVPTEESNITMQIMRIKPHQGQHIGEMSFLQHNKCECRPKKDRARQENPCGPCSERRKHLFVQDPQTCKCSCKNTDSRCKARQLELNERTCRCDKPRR

| Binder | binding result |
| --- | --- |
| RLFEMYPSLE (peptide, not shown: large carriers, Tested as a phage clone in phage ELISA) [polypeptide clone number 69, displayed on phage] | binds |
| PRFEMWHDDK (peptide, not shown: large carriers, Tested as a phage clone in phage ELISA) [polypeptide clone number 55, displayed on phage] | binds |
| FDKYYRDWFI (peptide, not shown: large carriers, Tested as a phage clone in phage ELISA) [polypeptide clone number 83, displayed on phage] | binds |
| YGYPWSGT (peptide, not shown: large carriers, Tested as a phage clone in phage ELISA) [polypeptide clone number 34, displayed on phage] | binds |
| PRLSMWQNME (peptide, not shown: large carriers, Tested as a phage clone in phage ELISA) [polypeptide clone number 63, displayed on phage] | binds |
| DFLKMYRDEK (peptide, not shown: large carriers, Tested as a phage clone in phage ELISA) [polypeptide clone number 52, displayed on phage] | binds |
| QMDRMFPHVG (peptide, not shown: large carriers, Tested as a phage clone in phage ELISA) [polypeptide clone number 65, displayed on phage] | binds |
| SRFEMWNDIS (peptide, not shown: large carriers, Tested as a phage clone in phage ELISA) [polypeptide clone number 70, displayed on phage] | binds |
| PHQEMWQFES (peptide, not shown: large carriers, Tested as a phage clone in phage ELISA) [polypeptide clone number 78, displayed on phage] | binds |
| RMGPFGTTH (peptide, not shown: large carriers, Tested as a phage clone in phage ELISA) [polypeptide clone number 40, displayed on phage] | binds |
| DRFSMWKNLE (peptide, not shown: large carriers, Tested as a phage clone in phage ELISA) [polypeptide clone number 66, displayed on phage] | binds |
| HDYAFYSAW (peptide, not shown: large carriers, Tested as a phage clone in phage ELISA) [polypeptide clone number 44, displayed on phage] | binds |
| EDYRFYSVW (peptide, not shown: large carriers, Tested as a phage clone in phage ELISA) [polypeptide clone number 13, displayed on phage] | binds |
| MHRPWPWDMF (peptide, not shown: large carriers, Tested as a phage clone in phage ELISA) [polypeptide clone number 56, displayed on phage] | binds |
| ERTEMFPSAS (peptide, not shown: large carriers, Tested as a phage clone in phage ELISA) [polypeptide clone number 73, displayed on phage] | binds |
| PIGQRWNRLE (peptide, not shown: large carriers, Tested as a phage clone in phage ELISA) [polypeptide clone number 68, displayed on phage] | binds |
| QRDQQYKHMY (peptide, not shown: large carriers, Tested as a phage clone in phage ELISA) [polypeptide clone number 50, displayed on phage] | binds |
| MKSAMYHDIR (peptide, not shown: large carriers, Tested as a phage clone in phage ELISA) [polypeptide clone number 82, displayed on phage] | binds |
| YRGVWGGYF (peptide, not shown: large carriers, Tested as a phage clone in phage ELISA) [polypeptide clone number 42, displayed on phage] | binds |
| DRYSQYQSPM (peptide, not shown: large carriers, Tested as a phage clone in phage ELISA) [polypeptide clone number 16, displayed on phage] | binds |
| QRDEMYPHLN (peptide, not shown: large carriers, Tested as a phage clone in phage ELISA) [polypeptide clone number 76, displayed on phage] | binds |
